Assay: soluble fraction after stress (log2 fold change); higher = more stays soluble; pooled small domains, quantitative proteomics
Conditions: stress: pH 4
Procedure, shortened: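 Values are on a log2 scale, where higher means more of the domain stayed soluble after pH 4 stress. They are fold changes in the soluble amount of each domain from pooled custom libraries, measured by high-throughput quantitative proteomics. The fold change is taken to reflect aggregation propensity.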

## HMKSKNRLTKSYLDSIPGVGRKRKSILLRYFGSIDQIKRASSEDIANVPGIGKITSDLVYNYFNQ
  soluble fraction (log2): -0.23

## HMKSLAQELVDALGDRIRDGRLKVGDKLPSEAAIEAQYGVSRTVVREAISRLQAAGLVVTRHGIGTFIVGI
  soluble fraction (log2): ≥ 0.43

## HMKSLLDQINGIGAIRKRALLNHFGSARAVESASLDEIKSVEGVEAKVAKKIYNFFHEYKNMLR
  soluble fraction (log2): 0.0807

## HMKSLLSRREQEVLELVSRGFSYSEIAELKNLSVHTIQTHIKSLYGKLEVHSKMEAVLEATRMGLLPQ
  soluble fraction (log2): -1.12

## HMKSSLAKNLETLMQERQISQTRLSKISGVSQSYIFKILNDQIKKPSLDTLEKLATALDSTVAQLNH
  soluble fraction (log2): 0.191

## HMKSSTEIIYSDFLREVSNGQISEVTIQGDFVRGLFLSGSSFQTYAPKDSNLINILRDKKVRIKVHPP
  soluble fraction (log2): -0.11

## HMKSTELSIIEALRVLGLKHGASQDSIKKSYRRLVKQHHPDLGGSADSFRKVNEAYQLLIMN
  soluble fraction (log2): 0.0586

## HMKSVILQLHPETLRWIREEAQADMADASVIQLLNDWELGTKKPTLSQVQKLSHETHIPFGYFFLKEKPA
  soluble fraction (log2): -0.203

## HMKSVQIPQSITVKEFSQAIEVSVADVIKKLMSMGVMVSQNKEINVDTAILVGEEFGVTVNVA
  soluble fraction (log2): -0.0481

## HMKSVTVIFKESGNVVSSKKLSVVATAQYVDKSRITAPAGYRIATTDSKLKISENNTVTVEVK
  soluble fraction (log2): -0.1

## HMKSYTYNPNYLSDYNAYRLGIPLEALERLQLHRSTGRYVNSLSDFQSVTGISDSLKHSLSSSLRFPN
  soluble fraction (log2): -0.564

## HMKTDLQIQQDVMAELKWEPKVNAAHIGVEVKHGVVTLSGHVDSFAEKWNAEQAAKRVAGVKFIAIELDV
  soluble fraction (log2): -0.0349

## HMKTEIKSPLPGIVLKIFVRTGEYVDKNQRLFSLEAMKMENEIKAERAGVIAGIRISEGQSVLQDEVIMEM
  soluble fraction (log2): -0.288

## HMKTFQSYQTTSMSNVNLRKRANGTSTILKRIKVGDTVTVVGKSGNYYQIQFDGKEGYALIKYIDGTDSGA
  soluble fraction (log2): -0.107

## HMKTFSTRLIALREAIGVNQSELARRVGVTPQAVQKWESGANGPRGKRLEKLASELRSTVGYLVSGEGDG
  soluble fraction (log2): 0.0382

## HMKTGAKLKNLRKMKKLSQEEVAKVLNLSYSTLSRWENDTRIPTYEDLFKLGQFYGVSVDYLSDPN
  soluble fraction (log2): -0.853

## HMKTGNIITVSLVWKGKYYMIRMFFPSASRPTRSDVQNEIEKVYPGSKLSTFSVSDYEPGQPLLQV
  soluble fraction (log2): -0.092

## HMKTGNPYAQRNTADMYNYGRGIEKDSYLAFVWYFAAYKQGNDNAKPQIDSITASGHLSPNQQLHAKIE
  soluble fraction (log2): -0.304

## HMKTIQVGSTVRVNQGAKTYSGGGLASFVYKRNHKVSQLQGDRAVITYEGTVVAAVHVSDLSLIH
  soluble fraction (log2): -0.801

## HMKTLELIAAIRKRIAGGYAGADGRLPNIGEIAKDFSVSPMTAQKAVRALVEAGVLTSTRRKGVFLKQPAS
  soluble fraction (log2): 0.354

## HMKTLGMDKGVNIALNDAGLRAEDVSNLSAHYDTEDGVPVYEIKFTAGGFSYEYQIKASDGTIIEADRDAA
  soluble fraction (log2): -0.0393

## HMKTMAVYPVGTRVLTSDGEIGVVEKQNSEAPERPVIKILKGADGHDYEKPDFKDLMKILTLFIVDTI
  soluble fraction (log2): 0.0457

## HMKTMSLSSIEKAIYKTKYENEPTSQRLSRIESSVFGTNFSQDSESERIARISSAINAQKSAK
  soluble fraction (log2): 0.22

## HMKTMTTIRKGSRGDTVATLQRKLNLIADGIFGPITDEAVRDFQKSHGLAVDGIVGPKTWAALGVGS
  soluble fraction (log2): 0.354

## HMKTNQINVSGLSKEKNFEVLESLDVYKFYNLFFLNKIKIDQLINSYNHIDNYSVFKKYPSSLIVKLSE
  soluble fraction (log2): -0.0619

## HMKTPETSEYVVQAGDSLRRILTERYGAKEQDLPYLYRQFRLLNPKVSSLDNIHAGTKVRIPLVASVL
  soluble fraction (log2): -0.0112

## HMKTPRKVFTVLIRNTEYDVYDIDGKEHQGYNDTPKTWWLYHSERLPEGMIPPIDSDSWKPYSVGT
  soluble fraction (log2): -2.19

## HMKTTKESLLEYIQREVFTDSIHKEGLSTNEIADAFQIQRSNVSSLLNTLVKEGKLEKTTGRPVLYRIPEK
  soluble fraction (log2): 0.0777

## HMKVEFDAMDKRILELMAKEYDTVLMARHLPLTPIVIDVRKKRIREVLNLPDATDAEIVIEAKEKDII
  soluble fraction (log2): -1.47

## HMKVEIVRVVKDIHIGDEITKDMVRTVEVGGYNLPDGVVKDTATVIGRFASADMVPGDYIISSKIADAP
  soluble fraction (log2): 0.0866

— the domain aggregation screens of Martell et al. (2025)
